What was measured:
[1] = substrate: COC(=O)/C=C/c1ccc(O)c(O)c1; experiment: HPLC of released free acid, Michaelis-Menten nonlinear fit; assay type: biochemical, Aspergillus niger; settings: 100 mM MOPS-NaOH pH 6.0, 45 °C, 30 min, substrate stock in DMSO
Description: (§1) HPLC of released free acid, Michaelis-Menten nonlinear fit on AnFaeA

[2] = substrate: COC(=O)/C=C/c1ccc(O)c(OC)c1; experiment: as above; assay type: biochemical, Aspergillus niger; settings: 100 mM MOPS-NaOH pH 6.0, 45 °C, 30 min, substrate stock in DMSO
Description: as §1

B1: AnFaeA (Aspergillus niger) (protein)
chain: ASTQGISEDLYNRLVEMATISQAAYADLCNIPSTIIKGEKIYNAQTDINGWILRDDTSKEIITVFRGTGSDTNLQLDTNYTLTPFDTLPQCNDCEVHGGYYIGWISVQDQVESLVKQQASQYPDYALTVTGHSLGASMAALTAAQLSATYDNVRLYTFGEPRSGNQAFASYMNDAFQVSSPETTQYFRVTHSNDGIPNLPPADEGYAHGGVEYWSVDPYSAQNTFVCTGDEVQCCEAQGGQGVNDAHTTYFGMTSGACTW
notes: recombinant, expressed in Pichia pastoris as described previously
[1]
  Km: 870 ± 170 µM
[2]
  Km: 1420 ± 260 µM

— PMC5725599, “Insights into substrate binding of ferulic acid esterases by arabinose and methyl hydroxycinnamate esters and molecular docking” (Scientific Reports, 2017)
